# Source: US20240182536A1 (MURAL ONCOLOGY, published 2024)
# Where a chain is given by its changes, count along the chain named. In names and notes the source's numbering stands.
# T1: interleukin 18 binding protein (IL-18BP) (UniProt O95998 31-194)
# T1 sequence (looked up): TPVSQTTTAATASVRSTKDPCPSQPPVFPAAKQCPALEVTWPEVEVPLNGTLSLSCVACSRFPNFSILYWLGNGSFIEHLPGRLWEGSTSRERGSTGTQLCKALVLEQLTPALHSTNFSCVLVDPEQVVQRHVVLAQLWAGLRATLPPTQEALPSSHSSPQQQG
# T2: IL-18 receptors on HEK-Blue IL-18 reporter cells (UniProt Q13478 19-541; O95256 20-599, limits assumed)
# T2 sequence (looked up) 1: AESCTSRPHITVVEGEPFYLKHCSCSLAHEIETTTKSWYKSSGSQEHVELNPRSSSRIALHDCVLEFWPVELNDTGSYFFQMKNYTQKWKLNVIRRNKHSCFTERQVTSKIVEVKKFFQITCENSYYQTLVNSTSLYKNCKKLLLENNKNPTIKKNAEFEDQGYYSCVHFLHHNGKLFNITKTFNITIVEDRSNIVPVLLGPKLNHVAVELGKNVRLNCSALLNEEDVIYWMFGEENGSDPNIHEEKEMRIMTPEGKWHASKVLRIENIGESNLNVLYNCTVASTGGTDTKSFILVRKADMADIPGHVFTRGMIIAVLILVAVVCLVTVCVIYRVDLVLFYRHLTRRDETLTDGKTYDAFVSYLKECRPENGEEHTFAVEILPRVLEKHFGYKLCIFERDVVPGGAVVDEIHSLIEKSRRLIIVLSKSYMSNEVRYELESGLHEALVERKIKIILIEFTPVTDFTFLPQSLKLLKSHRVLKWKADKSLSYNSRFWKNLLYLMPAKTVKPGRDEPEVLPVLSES
# T2 sequence (looked up) 2: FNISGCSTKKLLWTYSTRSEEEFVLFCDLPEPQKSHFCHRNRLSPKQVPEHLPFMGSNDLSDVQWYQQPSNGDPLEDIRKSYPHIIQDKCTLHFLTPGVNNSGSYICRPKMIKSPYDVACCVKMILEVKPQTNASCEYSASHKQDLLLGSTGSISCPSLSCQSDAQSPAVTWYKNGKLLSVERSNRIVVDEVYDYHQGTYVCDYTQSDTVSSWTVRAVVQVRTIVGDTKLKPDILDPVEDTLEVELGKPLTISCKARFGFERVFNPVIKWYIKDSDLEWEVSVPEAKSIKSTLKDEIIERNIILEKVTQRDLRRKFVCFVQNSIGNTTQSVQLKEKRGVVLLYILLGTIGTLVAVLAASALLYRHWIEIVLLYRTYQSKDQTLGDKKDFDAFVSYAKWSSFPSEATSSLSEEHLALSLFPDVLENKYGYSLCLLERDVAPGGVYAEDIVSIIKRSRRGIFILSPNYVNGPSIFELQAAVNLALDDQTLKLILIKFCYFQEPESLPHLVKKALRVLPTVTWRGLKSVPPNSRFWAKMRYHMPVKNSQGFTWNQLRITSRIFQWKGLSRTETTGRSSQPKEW
# B1: IL-18 variant S36E, D37E, D40R, N41G, K53Y, S55F (ligand)
# chain: YFGKLESKLSVIRNLNDQVLFIDQGNRPLFEDMTDEEMRRGAPRTIFIISMYYDFQPRGMAVTISVKSEKISTLSSENKIISFKEMNPPDNIKDTKSDIIFFQRSVPGHDNKMQFESSSYEGYFLASEKERDLFKLILKKEDELGDRSIMFTVQNED
# B2: IL-18 variant K53H, S55Q (ligand)
# chain: B1 chain with E36S, E37D, R40D, G41N, Y53H, F55Q
# B3: IL-18 variant K53H, S55H (ligand)
# chain: B1 chain with E36S, E37D, R40D, G41N, Y53H, F55H
# B4: IL-18 variant L9V, K53H, S55M (ligand)
# chain: B1 chain with L9V, E36S, E37D, R40D, G41N, Y53H, F55M
# B5: IL-18 variant K53Y, S55Y, Q56H (ligand)
# chain: B1 chain with E36S, E37D, R40D, G41N, F55Y, Q56H
# B6: IL-18 variant K53L, S55E (ligand)
# chain: B1 chain with E36S, E37D, R40D, G41N, Y53L, F55E
# B7: IL-18 variant K53S, S55Y, P107M (ligand)
# chain: B1 chain with E36S, E37D, R40D, G41N, Y53S, F55Y, P107M
# B8: IL-18 variant K53Y, S55V (ligand)
# chain: B1 chain with E36S, E37D, R40D, G41N, F55V
# B9: IL-18 variant K53H, S55I (ligand)
# chain: B1 chain with E36S, E37D, R40D, G41N, Y53H, F55I
# B10: IL-18 variant T34E, N41D, K53N, S55R (ligand)
# chain: B1 chain with T34E, E36S, E37D, R40D, G41D, Y53N, F55R
# B11: IL-18 variant K53N, S55Y (ligand)
# chain: B1 chain with E36S, E37D, R40D, G41N, Y53N, F55Y
# B12: IL-18 variant K53H, S55M, Q56H (ligand)
# chain: B1 chain with E36S, E37D, R40D, G41N, Y53H, F55M, Q56H
# B13: IL-18 variant K53D, S55Q, P107M (ligand)
# chain: B1 chain with E36S, E37D, R40D, G41N, Y53D, F55Q, P107M
# Biological target: T1, interleukin 18 binding protein (IL-18BP)
# Assay: cell-based or functional assay
Binder,"HEK-Blue activity, +100 nM BP, DF-10000","HEK-Blue activity, +100 nM BP, DF-100,000","HEK-Blue activity, +100 nM BP, DF-1,000,000","Ratio (-BP/+BP), DF-10000","Ratio (-BP/+BP), DF-100,000","Ratio (-BP/+BP), DF-1,000,000"
B1,0.16,0.19,0.14,1.19,0.64,1.06
B2,0.14,0.1,0.1,1.03,1.03,0.91
B3,0.15,0.1,0.09,1.01,0.99,0.96
B4,0.16,0.1,0.14,0.94,1.01,0.78
B5,0.22,0.2,0.19,0.73,0.76,0.73
B6,0.12,0.09,0.09,1.12,1.07,1.01
B7,0.19,0.14,0.18,0.82,0.76,0.69
B8,0.16,0.14,0.13,1.03,1.44,1.27
B9,0.16,0.11,0.1,0.92,0.9,0.89
B10,0.1,0.13,0.09,1.42,0.74,1.05
B11,0.14,0.09,0.09,1.11,1.02,0.96
B12,0.15,0.1,0.09,0.97,0.96,0.92
B13,0.22,0.14,0.13,0.85,0.97,1.02

# Biological target: T2, IL-18 receptors on HEK-Blue IL-18 …
# Assay: cell-based or functional assay
Binder,"HEK-Blue activity, No BP, DF-10000","HEK-Blue activity, No BP, DF-100,000","HEK-Blue activity, No BP, DF-1,000,000"
B1,0.2,0.12,0.14
B2,0.14,0.1,0.09
B3,0.15,0.1,0.08
B4,0.15,0.1,0.11
B5,0.16,0.15,0.14
B6,0.14,0.1,0.09
B7,0.15,0.11,0.12
B8,0.16,0.2,0.16
B9,0.14,0.1,0.09
B10,0.14,0.1,0.09
B11,0.16,0.09,0.08
B12,0.14,0.09,0.08
B13,0.19,0.13,0.13
